Reference: article PMC3229523, “Identification of Lactoferricin B Intracellular Targets Using an Escherichia coli Proteome Chip” (PLoS ONE, 2011)
Ends that are not written are not given here. * marks the point of attachment. Biotin = O=C1N[C@H]2[C@H](CS[C@H]2CCCCC(=O)*)N1

Experiments:
Assay in all cases: peptide or protein array; E. coli proteome chip: purified His-tagged proteins printed in duplicate on Fullmoon slides, blocked with 1% BSA; 10 nM N-terminal biotinylated LfcinB with 1% BSA, room temperature, 1 h; detected with DyLight 649-labeled streptavidin, ratio to DyLight 549-labeled anti-His antibody; ProCAT normalisation, local cut-off; triplicate chips
Settings in all cases: both partners purified
YfbR = target: T1, YfbR (E. coli K-12, UniProt P76491 1-199)
T1 construct: YfbR, E. coli K-12
T1 sequence (looked up): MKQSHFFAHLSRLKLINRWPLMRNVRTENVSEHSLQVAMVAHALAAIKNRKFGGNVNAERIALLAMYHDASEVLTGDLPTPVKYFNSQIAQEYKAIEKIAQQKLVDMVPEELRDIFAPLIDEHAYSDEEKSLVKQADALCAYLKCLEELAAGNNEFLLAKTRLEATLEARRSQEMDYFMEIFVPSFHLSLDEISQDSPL

[1] = target: T2, phosphoenolpyruvate carboxylase (E. coli K-12, UniProt P00864 1-883)
T2 construct: Ppc, phosphoenolpyruvate carboxylase, E. coli K-12; also called Ppc
T2 sequence (looked up): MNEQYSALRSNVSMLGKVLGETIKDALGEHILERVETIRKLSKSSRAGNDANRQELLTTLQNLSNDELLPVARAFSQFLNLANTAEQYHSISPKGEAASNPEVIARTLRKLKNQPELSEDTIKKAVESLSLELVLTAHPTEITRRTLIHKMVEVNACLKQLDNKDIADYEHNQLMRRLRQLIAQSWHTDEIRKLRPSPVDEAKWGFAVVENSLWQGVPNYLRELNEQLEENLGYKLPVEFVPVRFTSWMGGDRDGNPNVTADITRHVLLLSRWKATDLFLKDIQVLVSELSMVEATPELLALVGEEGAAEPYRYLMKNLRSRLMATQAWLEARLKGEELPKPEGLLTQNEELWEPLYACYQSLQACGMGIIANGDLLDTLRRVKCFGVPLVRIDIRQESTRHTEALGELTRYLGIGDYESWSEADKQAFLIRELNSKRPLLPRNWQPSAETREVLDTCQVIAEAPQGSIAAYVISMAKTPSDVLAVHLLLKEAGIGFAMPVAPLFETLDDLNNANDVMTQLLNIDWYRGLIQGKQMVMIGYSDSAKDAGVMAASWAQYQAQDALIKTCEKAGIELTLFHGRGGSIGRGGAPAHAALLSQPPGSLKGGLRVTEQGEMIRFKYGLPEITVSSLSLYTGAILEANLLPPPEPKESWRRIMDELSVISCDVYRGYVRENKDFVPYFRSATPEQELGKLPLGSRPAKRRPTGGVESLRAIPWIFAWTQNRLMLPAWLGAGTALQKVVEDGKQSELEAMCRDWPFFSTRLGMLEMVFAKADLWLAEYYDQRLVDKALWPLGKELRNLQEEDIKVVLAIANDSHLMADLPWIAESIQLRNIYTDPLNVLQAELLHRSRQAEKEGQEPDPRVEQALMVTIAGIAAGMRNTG

Smg = target: T3, Smg (E. coli K-12, UniProt P0A828 1-157)
T3 construct: Smg, E. coli K-12
T3 sequence (looked up): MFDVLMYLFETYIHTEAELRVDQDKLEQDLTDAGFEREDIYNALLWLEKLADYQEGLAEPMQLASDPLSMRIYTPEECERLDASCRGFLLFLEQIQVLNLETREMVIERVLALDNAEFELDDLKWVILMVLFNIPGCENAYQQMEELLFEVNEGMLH

PurC = target: T4, PurC (E. coli K-12, UniProt P0A7D7 1-237)
T4 construct: PurC, E. coli K-12
T4 sequence (looked up): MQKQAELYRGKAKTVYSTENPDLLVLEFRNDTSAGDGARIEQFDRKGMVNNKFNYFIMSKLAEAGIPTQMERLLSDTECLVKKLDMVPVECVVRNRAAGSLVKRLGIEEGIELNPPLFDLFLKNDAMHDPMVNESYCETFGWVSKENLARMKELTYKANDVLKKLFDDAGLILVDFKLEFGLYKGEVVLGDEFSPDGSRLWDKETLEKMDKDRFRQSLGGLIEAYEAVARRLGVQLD

YihI = target: T5, YihI (E. coli K-12, UniProt P0A8H6 1-169)
T5 construct: YihI, E. coli K-12
T5 sequence (looked up): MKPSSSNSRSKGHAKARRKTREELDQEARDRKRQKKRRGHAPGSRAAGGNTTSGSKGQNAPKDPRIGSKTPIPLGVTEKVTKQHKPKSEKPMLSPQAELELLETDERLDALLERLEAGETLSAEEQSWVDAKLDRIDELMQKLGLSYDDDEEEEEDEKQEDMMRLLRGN

Measured: binding result

B1: N-terminal biotinylated Lactoferricin B (peptide, UniProt P24627 36-60, looked up)
peptide: Biotin-FKCRRWQWRMKKLGAPSITCVRRAF
modifications: ends and bridges not checked
notes: lactoferricin B (LfcinB), cationic antimicrobial peptide of 25 amino acids; also called biotinylated LfcinB; biotin-labeled LfcinB; source: bought: Kelowna Inc
binds: all assays above
